How the values were obtained:
Experiment in all cases: competition fluorescence anisotropy against fluoresceinated Bim BH3
[1] = molecular target: Bcl-xL (c-myc-tagged) (human) (UniProt Q07817)
[2] = molecular target: Bcl-2 (c-myc-tagged) (human) (UniProt P10415)
[3] = molecular target: human Mcl-1 (c-myc-tagged) (human) (UniProt Q07820)
[4] = molecular target: T1, Bcl-w (c-myc-tagged) (human) (UniProt Q92843)
T1 sequence (looked up): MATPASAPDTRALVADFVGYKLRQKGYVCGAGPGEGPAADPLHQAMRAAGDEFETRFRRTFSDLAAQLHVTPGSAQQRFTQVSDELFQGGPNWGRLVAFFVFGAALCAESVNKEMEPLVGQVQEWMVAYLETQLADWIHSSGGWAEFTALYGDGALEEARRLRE

Measured: fold specificity for Bfl-1 relative to this protein

Chain of human Mcl-1 (c-myc-tagged) (human) (Q07820 172-327 limits assumed): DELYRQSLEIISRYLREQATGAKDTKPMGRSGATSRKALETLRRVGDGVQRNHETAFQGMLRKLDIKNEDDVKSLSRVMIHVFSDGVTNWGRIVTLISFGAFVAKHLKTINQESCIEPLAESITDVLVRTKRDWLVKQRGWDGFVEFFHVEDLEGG
Chain of Bcl-xL (c-myc-tagged) (human) (Q07817 1-209): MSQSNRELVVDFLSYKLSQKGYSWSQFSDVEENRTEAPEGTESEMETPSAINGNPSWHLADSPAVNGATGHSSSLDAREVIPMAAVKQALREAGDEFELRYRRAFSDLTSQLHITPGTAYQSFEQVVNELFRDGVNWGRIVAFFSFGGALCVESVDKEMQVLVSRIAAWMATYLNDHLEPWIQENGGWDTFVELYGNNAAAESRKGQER
Chain of Bcl-2 (c-myc-tagged) (human) (P10415 1-217 limits assumed): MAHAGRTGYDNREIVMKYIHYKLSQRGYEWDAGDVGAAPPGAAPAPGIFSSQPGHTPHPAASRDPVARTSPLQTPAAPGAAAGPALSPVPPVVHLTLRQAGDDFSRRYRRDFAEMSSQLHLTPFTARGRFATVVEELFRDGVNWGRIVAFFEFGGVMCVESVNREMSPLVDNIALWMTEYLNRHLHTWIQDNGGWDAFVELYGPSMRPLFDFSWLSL

Ac-QWVREIAAGLRLAADNVNAQLER-NH2 [FS1]
> 150 fold: [1] | [2] | [3] | [4]

Source: US20190185531A1
